Experimental data reported in patent US20220242957A1 (MARENGO THERAPEUTICS, published 2022).

Experiments:
mouse CSF1R = biological target: T1, mouse CSF1R (mouse, UniProt P09581 20-977); assay: flow cytometry on ExpiCHO cells transiently transfected with mouse CSF1R; goat anti-mouse Fc biotin and streptavidin-PE
T1 construct: whole, on cells; also called mCSF1R
T1 sequence (looked up): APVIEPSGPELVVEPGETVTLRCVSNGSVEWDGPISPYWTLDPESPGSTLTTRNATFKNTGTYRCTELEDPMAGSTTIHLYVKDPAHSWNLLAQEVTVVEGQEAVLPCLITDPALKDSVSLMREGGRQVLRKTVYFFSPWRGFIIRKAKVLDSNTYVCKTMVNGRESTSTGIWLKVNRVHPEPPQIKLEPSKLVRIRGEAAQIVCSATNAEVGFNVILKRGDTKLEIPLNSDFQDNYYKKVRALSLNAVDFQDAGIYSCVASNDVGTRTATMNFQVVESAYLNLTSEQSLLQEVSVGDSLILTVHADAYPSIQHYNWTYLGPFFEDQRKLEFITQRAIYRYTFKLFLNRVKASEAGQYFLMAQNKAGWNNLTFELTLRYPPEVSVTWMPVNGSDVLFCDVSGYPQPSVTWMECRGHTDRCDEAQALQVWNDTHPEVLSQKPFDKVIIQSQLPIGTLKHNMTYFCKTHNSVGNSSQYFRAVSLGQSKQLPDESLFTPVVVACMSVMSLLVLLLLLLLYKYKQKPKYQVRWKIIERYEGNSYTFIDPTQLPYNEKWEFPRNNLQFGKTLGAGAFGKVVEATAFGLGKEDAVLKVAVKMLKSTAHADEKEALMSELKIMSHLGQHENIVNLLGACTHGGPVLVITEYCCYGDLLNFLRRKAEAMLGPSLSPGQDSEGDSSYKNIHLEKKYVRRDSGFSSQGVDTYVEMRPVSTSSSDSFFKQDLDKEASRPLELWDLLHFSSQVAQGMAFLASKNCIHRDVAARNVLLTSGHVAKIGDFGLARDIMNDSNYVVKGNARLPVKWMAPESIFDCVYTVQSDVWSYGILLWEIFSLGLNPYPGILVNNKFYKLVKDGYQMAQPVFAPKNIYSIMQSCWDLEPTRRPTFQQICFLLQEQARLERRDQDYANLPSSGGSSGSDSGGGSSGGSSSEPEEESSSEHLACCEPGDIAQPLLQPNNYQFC
Experimental: (§1) ExpiCHO cells were transiently transfected with mouse CCR2, mouse CSF1R, or both mouse CCR2 and CSF1R, according to the manufacturer's instructions. In brief, the transfections were performed with ExpiCHO cells at a cell density of 5.6-6.3×10⁶ cells/mL and at least 95% viability. For each transfection, 25 μg of DNA was diluted with 1 mL of OptiPro SFM (Gibco 12309050) and filtered using spin-X centrifuge tube filters (Corning 8160). A solution of 920 µL of OptiPro and 80 μL of expifectamine was added to the filtered DNA, incubated for 1 minute at room temperature, and then added to the cells. On day 1 of the transfection, the cells were enhanced using 150 μL of ExpiCHO enhancer.
(§2) On day 2 of the transfection, the cells were washed with PBS containing 1% BSA (Sigma) and used to set 96-well V-bottom plates (Biotix AP-0350-9CVS) with 100,000 cells/well. UniTI-01 was added to the cells in serial dilutions and incubated for 1 hour at 4° C. The plates were washed twice with PBS containing 1% BSA. […] The plates were read on a CytoFLEX S (Beckman Coulter). Data were calculated as the median fluorescence intensity of the PE-positive population vs. the median fluorescence intensity of the PE-negative population. The data was normalized for the percent of total median fluorescence intensity.

[1] = biological target: T2, mouse CCR2 and mouse CSF1R, both expressed on the same ExpiCHO cells (mouse, UniProt P51683 1-373; P09581 20-977); assay: flow cytometry on ExpiCHO cells transiently transfected with both mouse CCR2 and mouse CSF1R; goat anti-mouse Fc biotin and streptavidin-PE
T2 construct: whole, on cells; Two separate membrane proteins on one cell, not a complex; also called CCR2 and CSF1R double positive cells; both mCCR2 and mCSF1R
T2 sequence (P51683 whole entry, one chain of several): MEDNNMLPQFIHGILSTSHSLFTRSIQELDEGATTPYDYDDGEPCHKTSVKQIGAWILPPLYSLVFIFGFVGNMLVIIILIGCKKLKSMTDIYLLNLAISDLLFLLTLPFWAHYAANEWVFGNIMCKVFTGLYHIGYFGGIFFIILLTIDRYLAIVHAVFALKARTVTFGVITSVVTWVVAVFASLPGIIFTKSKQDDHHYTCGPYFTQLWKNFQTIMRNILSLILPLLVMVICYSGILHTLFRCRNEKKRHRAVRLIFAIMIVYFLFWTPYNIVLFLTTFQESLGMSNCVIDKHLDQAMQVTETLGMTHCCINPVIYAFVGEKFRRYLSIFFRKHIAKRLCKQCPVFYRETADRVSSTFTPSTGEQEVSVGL
Experimental: as §1, §2

mouse CCR2 = biological target: T3, mouse CCR2 (mouse, UniProt P51683 1-373); assay: flow cytometry on ExpiCHO cells transiently transfected with mouse CCR2; goat anti-mouse Fc biotin and streptavidin-PE
T3 construct: whole, on cells; also called mCCR2
T3 sequence (P51683 whole entry): as the sequence (P51683 whole entry, one chain of several) above
Experimental: as §1, §2

EC50 (mouse CSF1R): 1 nM
EC50 [1]: 0.4 nM
EC50 (mouse CCR2): 15 nM
B1: UniTI-01 (multispecific molecule #1, anti-CCR2/anti-CSF1R bispecific antibody) (bispecific antibody)
heavy 1: QVQLQESGPGLVQPSQTLSLTCTVSGFSLTDFSVHWVRQPPGKGLEWMGRIRSEGNTDYNSALKSRLSISRDTSKSQVFLKMNSLQTEDTAIYFCTRGDILGFGYWGQGVMVTVSSAQTTAPSVYPLAPGCGDTTSSTVTLGCLVKGYFPEPVTVTWNSGALSSDVHTFPAVLQSGLYTLTSSVTSSTWPSQTVTCNVAHPASSTKVDKKVERRTIKPCPPCKCPAPNLLGGPSVFIFPPKIKDVLMISLSPIVTCVVVDVSEDDPDVQISWFVNNVEVHTAQTQTHREDYNSTLRVVSALPIQHQDWMSGKEFKCKVNNKDLPAPIERTISKPKGSVRAPQVYVLPPCEEEMTKKQVTLWCMVTDFMPEDIYVEWTNNGKTELNYKNTEPVLDSDGSYFMYSKLRVEKKNWVERNSYSCSVVHEGLHNHHTTKSFSRTPGK
light 1: DIVMTQSPLSVSVTPGESASISCRSSKSLLHFKGITFVYWYLQKPGQSPQLLIFRMSSLASGVPDRFSGSGSETDFTLKISRVEAEDVGTYYCGQLLENPYTFGAGTKLELKRADAAPTVSIFPPSMEQLTSGGATVVCFVNNFYPRDISVKWKIDGSEQRDGVLDSVTDQDSKDSTYSMSSTLSLTKVEYERHNLYTCEVVHKTSSSPVVKSFNRNEC
heavy 2: QVQLQQSGAELVKPGSSVKISCKASGYTFTSNFMHWIKQQPGNGLEWIGWIYPGDGDTEYNQKFNGKATLTADKSSSTAYMQLSSLTSEDSAVYFCAVNYGGYVLDAWGQGASVTVSSAETTAPSVYPLAPGTALKSNSMVTLGCLVKGYFPEPVTVTWNSGALSSGVHTFPAVLQSGLYTLTSSVTVPSSTWSSQAVTCNVAHPASSTKVDKKIVPRECNTIKPCPPCKCPAPNLLGGPSVFIFPPKIKDVLMISLSPIVTCVVVDVSEDDPDVQISWFVNNVEVHTAQTQTHREDYNSTLRVVSALPIQHQDWMSGKEFKCKVNNKDLPAPIERTISKPKGSVRAPQVCVLPPPEEEMTKKQVTLSCAVTDFMPEDIYVEWTNNGKTELNYKNTEPVLDSDGSYFMVSKLRVEKKNWVERNSYSCSVVHEGLHNHHTTKSFSRTPGK
light 2: EIVLTQSPTTMAASPGEKVTITCRASSSTNYMSWYQQKSGASPKPWIYETSKLASGVPDRFSGSGSGTSYSFTISSMETEDAATYYCHQWSSTPLTFGSGTKLEIKRADAAPTVSIFPPSMEQLTSGGATVVCFVNNFYPRDISVKWKIDGSEQRDGVLDSVTDQDSKDSTYSMSSTLSLTKVEYERHNLYTCEVVHKTSSSPVVKSFNRNEC
notes: one arm for each target; also called mUniTI-01
